Measured values as given in paper PMC5751438 (Cell, 2017).

T1: SBP-tagged Ufd1/Npl4 heterodimer (SBP tag on Ufd1) (S. cerevisiae, UniProt P53044 1-361; P33755 1-580)
T1 sequence (looked up) 1: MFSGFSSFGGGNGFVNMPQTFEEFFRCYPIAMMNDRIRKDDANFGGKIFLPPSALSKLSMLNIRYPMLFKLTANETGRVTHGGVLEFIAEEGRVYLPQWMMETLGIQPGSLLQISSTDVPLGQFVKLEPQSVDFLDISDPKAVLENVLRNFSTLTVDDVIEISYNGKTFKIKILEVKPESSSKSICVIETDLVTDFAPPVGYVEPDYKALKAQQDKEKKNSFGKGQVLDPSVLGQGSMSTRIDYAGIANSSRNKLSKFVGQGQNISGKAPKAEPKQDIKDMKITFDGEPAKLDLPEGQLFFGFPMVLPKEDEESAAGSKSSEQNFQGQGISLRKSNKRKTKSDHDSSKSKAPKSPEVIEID
T1 sequence (looked up) 2: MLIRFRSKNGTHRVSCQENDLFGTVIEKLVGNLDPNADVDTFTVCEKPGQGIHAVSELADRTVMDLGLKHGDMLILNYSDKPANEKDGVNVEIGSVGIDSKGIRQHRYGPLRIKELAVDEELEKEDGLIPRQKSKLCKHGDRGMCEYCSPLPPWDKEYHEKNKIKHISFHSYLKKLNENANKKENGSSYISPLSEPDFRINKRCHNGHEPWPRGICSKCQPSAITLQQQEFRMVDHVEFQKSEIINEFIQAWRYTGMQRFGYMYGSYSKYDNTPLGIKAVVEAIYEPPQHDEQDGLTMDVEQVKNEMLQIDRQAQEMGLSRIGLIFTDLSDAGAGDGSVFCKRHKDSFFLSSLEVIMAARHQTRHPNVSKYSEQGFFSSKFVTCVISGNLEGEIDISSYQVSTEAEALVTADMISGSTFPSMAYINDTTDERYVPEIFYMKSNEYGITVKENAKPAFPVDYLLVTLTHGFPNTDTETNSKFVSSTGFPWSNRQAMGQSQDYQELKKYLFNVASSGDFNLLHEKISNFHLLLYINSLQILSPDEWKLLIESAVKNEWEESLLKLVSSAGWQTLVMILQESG

B1: Cdc48 ATPase (wild type, untagged) (enzyme, S. cerevisiae, UniProt P25694 1-835, looked up)
chain: MGEEHKPLLDASGVDPREEDKTATAILRRKKKDNMLLVDDAINDDNSVIAINSNTMDKLELFRGDTVLVKGKKRKDTVLIVLIDDELEDGACRINRVVRNNLRIRLGDLVTIHPCPDIKYATRISVLPIADTIEGITGNLFDVFLKPYFVEAYRPVRKGDHFVVRGGMRQVEFKVVDVEPEEYAVVAQDTIIHWEGEPINREDEENNMNEVGYDDIGGCRKQMAQIREMVELPLRHPQLFKAIGIKPPRGVLMYGPPGTGKTLMARAVANETGAFFFLINGPEVMSKMAGESESNLRKAFEEAEKNAPAIIFIDEIDSIAPKRDKTNGEVERRVVSQLLTLMDGMKARSNVVVIAATNRPNSIDPALRRFGRFDREVDIGIPDATGRLEVLRIHTKNMKLADDVDLEALAAETHGYVGADIASLCSEAAMQQIREKMDLIDLDEDEIDAEVLDSLGVTMDNFRFALGNSNPSALRETVVESVNVTWDDVGGLDEIKEELKETVEYPVLHPDQYTKFGLSPSKGVLFYGPPGTGKTLLAKAVATEVSANFISVKGPELLSMWYGESESNIRDIFDKARAAAPTVVFLDELDSIAKARGGSLGDAGGASDRVVNQLLTEMDGMNAKKNVFVIGATNRPDQIDPAILRPGRLDQLIYVPLPDENARLSILNAQLRKTPLEPGLELTAIAKATQGFSGADLLYIVQRAAKYAIKDSIEAHRQHEAEKEVKVEGEDVEMTDEGAKAEQEPEVDPVPYITKEHFAEAMKTAKRSVSDAELRRYEAYSQQMKASRGQFSNFNFNDAPLGTTATDNANSNNSAPSGAGAAFGSNAEEDDDLYS
B2: Otu1 (wild type) (enzyme, UniProt P43558 1-301, looked up)
chain: MKLKVTGAGINQVVTLKQDATLNDLIEHINVDVKTMRFGYPPQRINLQGEDASLGQTQLDELGINSGEKITIESSDSNESFSLPPPQPKPKRVLKSTEMSIGGSGENVLSVHPVLDDNSCLFHAIAYGIFKQDSVRDLREMVSKEVLNNPVKFNDAILDKPNKDYAQWILKMESWGGAIEIGIISDALAVAIYVVDIDAVKIEKFNEDKFDNYILILFNGIHYDSLTMNEFKTVFNKNQPESDDVLTAALQLASNLKQTGYSFNTHKAQIKCNTCQMTFVGEREVARHAESTGHVDFGQNR

How the values were obtained:
[1] = biological target: T1, SBP-tagged Ufd1/Npl4 heterodimer (SBP …); assay: pull-down
[2] = biological target: B1; assay: pull-down

| Binder | binding result [1] | binding result [2] |
| --- | --- | --- |
| B1 | binds | – |
| B2 | – | binds |
